From patent EP4663199A1 (Strike Pharma AB, dated 2025)

How the values were obtained:
[1] = target: peptide SEQ ID NO:236 (tag moiety …, GGS spacers, cargo peptide)
[2] = target: peptide SEQ ID NO:237 (tag moiety …, GGS spacer, cargo peptide)
[3] = target: peptide SEQ ID NO:240 (tag moiety …, no spacer, cargo peptide)
[4] = target: peptide SEQ ID NO:243 (tag moiety …, GGS spacer, cargo peptide)
[5] = target: peptide SEQ ID NO:228 (tag moiety …, AAY spacers, cargo peptide)
[6] = target: peptide SEQ ID NO:230 (tag moiety …, GGS spacers, cargo peptide)
[7] = target: peptide SEQ ID NO:234 (tag moiety …, AAY spacers, cargo peptide)
[8] = target: peptide SEQ ID NO:235 (tag moiety […], AAA spacers, cargo peptide)

B1: bispecific binding molecule comprising a first specific binding molecule (comprising SEQ ID NO:265 a (bispecific antibody)
VH: EVQLLESGGGLVQPGGSLRLSCAASGFTFSSYAMSWVRQAPGKGLEWVSGISGYSGSTYYADSVKGRFTISRDNSKNTLYLQMNSLRAEDTAVYYCARYYSYYGYYYFDYWGQGTLVTVSS
VL: DIQMTQSPSSLSASVGDRVTITCRASQSISSYLNWYQQKPGKAPKLLIYAASSLQSGVPSRFSGSGSGTDFTLTISSLQPEDFATYYCQQGYPYPFTFGQGTKLEIK
scFv: QVQLVQSGAEVKKPGASVKVSCKASGFNIKDFNIHWVRQAPGQGLEWIGRIDPESGDAEYVPKFQGRVTMTRDTSTSTVYMELSSLRSEDTAVYYCTTGSYDLDVEYWGQGTLVTVSSGGGGSGGGGSGGGGSGGGGSDIQMTQSPSSLSASVGDRVTITCHASQNINVWLSWYQQKPGKAPKLLIYKASTLHTGVPSRFSGSGSGTDFTLTISSLQPEDFATYYCQQGQSYPLTFGQGTKLEIK
Binder B1 has a Kd [1] of 0.012 nM, a Kd [2] of 0.076 nM and a Kd [3] of 0.0055 nM. It also gave a Kd [4] of 0.0027 nM, a Kd [5] of 0.0078 nM and a Kd (peptide) of 0.012 nM. It also gave a Kd [6] of 0.016 nM, a Kd [7] of 0.017 nM and a Kd [8] of 0.011 nM.
